Test results reported in paper PMC2897852 (PLoS ONE, 2010).

B1: His-ClpX (M. tuberculosis ClpX, pRD21) (natural protein)
chain: not shown
notes: also called his-clpXTB; recombinant His-ClpX fusion protein

Experiments:
[1] = target: the molecule itself; test: SEC; purified ClpX on a Superdex 200 10/300 GL column; data not shown
[2] = target: B1; test: ELISA; conditions: both partners purified

Binder	stoichiometry N [1]	binding result [2]
B1	6	–
purified FtsZ (M. tuberculosis) as used in the solid-phase binding and polymerization assays (natural protein, also called FtsZTB) MTPPHNYLAVIKVVGIGGGGVNAVNRMIEQGLKGVEFIAINTDAQALLMSDADVKLDVGRDSTRGLGAGADPEVGRKAAEDAKDEIEELLRGADMVFVTAGEGGGTGTGGAPVVASIARKLGALTVGVVTRPFSFEGKRRSNQAENGIAALRESCDTLIVIPNDRLLQMGDAAVSLMDAFRSADEVLLNGVQGITDLITTPGLINVDFADVKGIMSGAGTALMGIGSARGEGRSLKAAEIAINSPLLEASMEGAQGVLMSIAGGSDLGLFEINEAASLVQDAAHPDANIIFGTVIDDSLGDEVRVTVIAAGFDVSGPGRKPVMGETGGAHRIESAKAGKLTSTLFEPVDAVSVPLHTNGATLSIGGDDDDVDVPPFMRR	–	binds
